The values below are quoted from earlier work in US20260125483A1, “COMPOSITIONS OF IL-6/IL-6R ANTIBODIES AND METHODS OF USE THEREOF” (Tiziana Life Sciences PLC, priority 2020, published 2026).

Numbering of substitutions follows the chain as printed.

First the molecules themselves.
B1: 39B9 VL1: IL-6R antibody, heavy chain variable region SEQ ID NO:2, light chain variable region SEQ ID NO: 4 (antibody, V domains shown)
VH: QVQLVQSGAEVKKPGSSVKVSCKASGGTFSSYAISWVRQAPGQGLEWMGGIIPLFDTTKYAQQFQGRVTITADESTSTAYMELSSLRSEDTAVFYCARDRDILTDYYPMGGMDVWGQGTTVTVSS
VL: AIQLTQSPSSLSASVGDRVTITCRASQGISSVLAWYQQKPGKAPKLLIYDASSLESGVPSRFSGSGSGTDFTLTISSLQPEDFATYYCQQSNSYPLTFGGGTKVEIKR
modifications: 3B9 VL1-VH amino acid sequence; 39B9 VL1-VL amino acid sequence
B2: 12A: IL-6R antibody, heavy chain variable region SEQ ID NO:8, light chain variable region SEQ ID NO: 10 (antibody, V domains shown)
VH: QVQLVESWGGVVQPGRSLRLSCAASGFTFSNYDMYWVRQAPGKGLEWVAVILDDGNNNYYADSVKGRFTISRDNSKKKVYLQMNSLRAEDTAVYYCVRASPNWGLLDFWGQGTLVTVSS
VL: B1 VL with A1E, Q3V, V32W, S91F, L96I, G100Q, K103R, V104L
modifications: 12A VH amino acid sequence; 12A VL amino acid sequence
B3: 39B9 VL5: IL-6R antibody, heavy chain variable region SEQ ID NO:2, light chain variable region SEQ ID NO: 6 (antibody, V domains shown)
VH: B1 VH
VL: B1 VL with A1D, Q3L, L4M, G28D, V32W
modifications: 3B9 VL1-VH amino acid sequence; 39B9 VL5-VL amino acid sequence
B4: 5C: IL-6R antibody, heavy chain variable region SEQ ID NO: 12, light chain variable region SEQ ID NO: 14 (antibody, V domains shown)
VH: B2 VH with E6Q, W8G, T28I, N31S, D53Y, N58K, K77N, K78T, L106F
VL: B1 VL with A1D, L4M, V32D, I48M, S91F, L96I, G100Q, K103R, V104L
modifications: 5C VH amino acid sequence; 5C VL amino acid sequence

Sequence of IL-6Rc (P08887 20-468): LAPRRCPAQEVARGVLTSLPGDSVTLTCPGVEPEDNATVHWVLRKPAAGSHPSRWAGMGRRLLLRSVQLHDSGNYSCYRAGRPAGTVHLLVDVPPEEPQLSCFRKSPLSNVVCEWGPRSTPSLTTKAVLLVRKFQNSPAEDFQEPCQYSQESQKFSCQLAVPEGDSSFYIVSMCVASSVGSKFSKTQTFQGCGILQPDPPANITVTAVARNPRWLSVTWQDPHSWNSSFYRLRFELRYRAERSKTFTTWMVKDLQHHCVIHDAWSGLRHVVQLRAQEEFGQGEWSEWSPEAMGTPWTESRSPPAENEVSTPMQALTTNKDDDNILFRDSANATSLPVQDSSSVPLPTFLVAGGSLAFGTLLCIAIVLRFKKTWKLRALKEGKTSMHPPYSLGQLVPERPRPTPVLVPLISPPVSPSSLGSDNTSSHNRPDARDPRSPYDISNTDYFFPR
Sequence of IL-6Rc (P05231 30-212): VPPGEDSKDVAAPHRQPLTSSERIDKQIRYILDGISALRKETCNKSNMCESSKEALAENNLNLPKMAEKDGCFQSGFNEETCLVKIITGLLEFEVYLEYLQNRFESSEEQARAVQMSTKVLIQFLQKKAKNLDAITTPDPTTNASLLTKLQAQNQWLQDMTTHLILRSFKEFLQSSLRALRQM

The data set has as its target IL-6Rc (Homo sapiens, UniProt P05231+P08887). As to conditions: binding to gp130 to induce the signaling cascade; WO/2009/140348.
Regarding B1, the “functional activity of IL-6Rc in vitro” value was “inhibit the functional activity of IL-6Rc”.

As to B2, the “functional activity of IL-6Rc in vitro” value is “inhibit the functional activity of IL-6Rc”.

Take B3: the “functional activity of IL-6Rc in vitro” value was “inhibit the functional activity of IL-6Rc”.

As for B4, the “functional activity of IL-6Rc in vitro” value was “inhibit the functional activity of IL-6Rc”.
